{"source": "the Immune Epitope Database (IEDB)", "key": {"HLA-A*68:02": {"target": "HLA-A*68:02", "experiment": "IEDB peptide-MHC binding, purified MHC/competitive/radioactivity; filed as Kd, often an IC50 or EC50 that approximates it; ≥ and ≤ were set here for values at or beyond the usual limits of such assays"}, "HLA-B*58:01 [1]": {"target": "HLA-B*58:01", "experiment": "IEDB peptide-MHC binding, purified MHC/competitive/radioactivity; filed as Kd, often an IC50 or EC50 that approximates it; ≥ and ≤ were set here for values at or beyond the usual limits of such assays"}, "HLA-B*57:01": {"target": "HLA-B*57:01", "experiment": "IEDB peptide-MHC binding, purified MHC/competitive/radioactivity; filed as Kd, often an IC50 or EC50 that approximates it; ≥ and ≤ were set here for values at or beyond the usual limits of such assays"}, "HLA-A*02:06": {"target": "HLA-A*02:06", "experiment": "IEDB peptide-MHC binding, purified MHC/competitive/radioactivity; filed as Kd, often an IC50 or EC50 that approximates it; ≥ and ≤ were set here for values at or beyond the usual limits of such assays"}, "HLA-A*02:03": {"target": "HLA-A*02:03", "experiment": "IEDB peptide-MHC binding, purified MHC/competitive/radioactivity; filed as Kd, often an IC50 or EC50 that approximates it; ≥ and ≤ were set here for values at or beyond the usual limits of such assays"}, "HLA-A*02:01 [2]": {"target": "HLA-A*02:01", "experiment": "IEDB peptide-MHC binding, purified MHC/competitive/radioactivity; filed as Kd, often an IC50 or EC50 that approximates it; ≥ and ≤ were set here for values at or beyond the usual limits of such assays"}, "HLA-A*02:17": {"target": "HLA-A*02:17", "experiment": "IEDB peptide-MHC binding, purified MHC/competitive/radioactivity; filed as Kd, often an IC50 or EC50 that approximates it; ≥ and ≤ were set here for values at or beyond the usual limits of such assays"}, "HLA-A*24:02": {"target": "HLA-A*24:02", "experiment": "IEDB peptide-MHC binding, purified MHC/competitive/radioactivity; filed as Kd, often an IC50 or EC50 that approximates it; ≥ and ≤ were set here for values at or beyond the usual limits of such assays", "settings": "source organism: Dengue virus 1 Singapore/S275/1990"}, "HLA-B*08:01 [3]": {"target": "HLA-B*08:01", "experiment": "IEDB peptide-MHC binding, purified MHC/competitive/radioactivity; filed as Kd, often an IC50 or EC50 that approximates it; ≥ and ≤ were set here for values at or beyond the usual limits of such assays", "settings": "source organism: Dengue virus 2 Jamaica/1409/1983"}, "HLA-B*15:01 [4]": {"target": "HLA-B*15:01", "experiment": "IEDB peptide-MHC binding, purified MHC/competitive/radioactivity; filed as Kd, often an IC50 or EC50 that approximates it; ≥ and ≤ were set here for values at or beyond the usual limits of such assays", "settings": "source organism: Dengue virus 2 Jamaica/1409/1983"}, "HLA-B*07:02": {"target": "HLA-B*07:02", "experiment": "IEDB peptide-MHC binding, purified MHC/direct/fluorescence; filed as Kd, often an IC50 or EC50 that approximates it; ≥ and ≤ were set here for values at or beyond the usual limits of such assays", "settings": "source organism: Salmonella enterica subsp. enterica serovar Typhi"}, "HLA-B*44:02": {"target": "HLA-B*44:02", "experiment": "IEDB peptide-MHC binding, purified MHC/direct/fluorescence; filed as Kd, often an IC50 or EC50 that approximates it; ≥ and ≤ were set here for values at or beyond the usual limits of such assays", "settings": "source organism: Salmonella enterica subsp. enterica serovar Typhi"}, "HLA-A*11:01": {"target": "HLA-A*11:01", "experiment": "IEDB peptide-MHC binding, purified MHC/direct/fluorescence; filed as Kd, often an IC50 or EC50 that approximates it; ≥ and ≤ were set here for values at or beyond the usual limits of such assays", "settings": "source organism: Salmonella enterica subsp. enterica serovar Typhi"}, "HLA-B*27:05": {"target": "HLA-B*27:05", "experiment": "IEDB peptide-MHC binding, purified MHC/direct/fluorescence; filed as Kd, often an IC50 or EC50 that approximates it; ≥ and ≤ were set here for values at or beyond the usual limits of such assays", "settings": "source organism: Salmonella enterica subsp. enterica serovar Typhi"}, "HLA-B*08:01 [5]": {"target": "HLA-B*08:01", "experiment": "IEDB peptide-MHC binding, purified MHC/direct/fluorescence; filed as Kd, often an IC50 or EC50 that approximates it; ≥ and ≤ were set here for values at or beyond the usual limits of such assays", "settings": "source organism: Salmonella enterica subsp. enterica serovar Typhi"}, "HLA-B*15:01 [6]": {"target": "HLA-B*15:01", "experiment": "IEDB peptide-MHC binding, purified MHC/direct/fluorescence; filed as Kd, often an IC50 or EC50 that approximates it; ≥ and ≤ were set here for values at or beyond the usual limits of such assays", "settings": "source organism: Salmonella enterica subsp. enterica serovar Typhi"}, "HLA-B*40:01": {"target": "HLA-B*40:01", "experiment": "IEDB peptide-MHC binding, purified MHC/direct/fluorescence; filed as Kd, often an IC50 or EC50 that approximates it; ≥ and ≤ were set here for values at or beyond the usual limits of such assays", "settings": "source organism: Salmonella enterica subsp. enterica serovar Typhi"}, "HLA-A*26:01": {"target": "HLA-A*26:01", "experiment": "IEDB peptide-MHC binding, purified MHC/direct/fluorescence; filed as Kd, often an IC50 or EC50 that approximates it; ≥ and ≤ were set here for values at or beyond the usual limits of such assays", "settings": "source organism: Salmonella enterica subsp. enterica serovar Typhi"}, "HLA-A*02:01 [7]": {"target": "HLA-A*02:01", "experiment": "IEDB peptide-MHC binding, purified MHC/direct/fluorescence; filed as Kd, often an IC50 or EC50 that approximates it; ≥ and ≤ were set here for values at or beyond the usual limits of such assays", "settings": "source organism: Salmonella enterica subsp. enterica serovar Typhi"}, "HLA-A*24:03": {"target": "HLA-A*24:03", "experiment": "IEDB peptide-MHC binding, purified MHC/direct/fluorescence; filed as Kd, often an IC50 or EC50 that approximates it; ≥ and ≤ were set here for values at or beyond the usual limits of such assays", "settings": "source organism: Salmonella enterica subsp. enterica serovar Typhi"}, "HLA-A*03:01": {"target": "HLA-A*03:01", "experiment": "IEDB peptide-MHC binding, purified MHC/direct/fluorescence; filed as Kd, often an IC50 or EC50 that approximates it; ≥ and ≤ were set here for values at or beyond the usual limits of such assays", "settings": "source organism: Salmonella enterica subsp. enterica serovar Typhi"}, "HLA-B*58:01 [8]": {"target": "HLA-B*58:01", "experiment": "IEDB peptide-MHC binding, purified MHC/direct/fluorescence; filed as Kd, often an IC50 or EC50 that approximates it; ≥ and ≤ were set here for values at or beyond the usual limits of such assays", "settings": "source organism: Salmonella enterica subsp. enterica serovar Typhi"}, "HLA-A*31:01": {"target": "HLA-A*31:01", "experiment": "IEDB peptide-MHC binding, purified MHC/direct/fluorescence; filed as Kd, often an IC50 or EC50 that approximates it; ≥ and ≤ were set here for values at or beyond the usual limits of such assays", "settings": "source organism: Salmonella enterica subsp. enterica serovar Typhi"}, "HLA-A*01:01": {"target": "HLA-A*01:01", "experiment": "IEDB peptide-MHC binding, purified MHC/direct/fluorescence; filed as Kd, often an IC50 or EC50 that approximates it; ≥ and ≤ were set here for values at or beyond the usual limits of such assays", "settings": "source organism: Salmonella enterica subsp. enterica serovar Typhi"}, "HLA-A*69:01": {"target": "HLA-A*69:01", "experiment": "IEDB peptide-MHC binding, purified MHC/direct/fluorescence; filed as Kd, often an IC50 or EC50 that approximates it; ≥ and ≤ were set here for values at or beyond the usual limits of such assays", "settings": "source organism: Salmonella enterica subsp. enterica serovar Typhi"}, "[9]": {"settings": "source organism: Dengue virus 2 Jamaica/1409/1983"}, "[10]": {"settings": "source organism: Dengue virus 4 Philippines/H241/1956"}, "[11]": {"settings": "source organism: Dengue virus 1 Singapore/S275/1990"}, "[12]": {"settings": "source organism: Dengue virus 3 Martinique/1243/1999"}, "[13]": {"settings": "source organism: Dengue virus 3 Sri Lanka/1266/2000"}}, "data": [{"sequence": "NASGNIVSSV", "values": [{"measurement": "Kd", "setting": "HLA-A*68:02; [9]", "result": 48, "unit": "nM"}, {"measurement": "Kd", "setting": "HLA-B*58:01 [1]; [9]", "result": 112, "unit": "nM"}, {"measurement": "Kd", "setting": "HLA-B*57:01; [9]", "result": 464, "unit": "nM"}]}, {"sequence": "TMFGGVSWMV", "values": [{"measurement": "Kd", "setting": "HLA-A*02:06; [10]", "result": 2.25, "unit": "nM"}, {"measurement": "Kd", "setting": "HLA-A*68:02; [10]", "result": 5.34, "unit": "nM"}, {"measurement": "Kd", "setting": "HLA-A*02:03; [10]", "result": 65.1, "unit": "nM"}, {"measurement": "Kd", "setting": "HLA-A*02:01 [2]; [10]", "result": 4.46, "unit": "nM"}, {"measurement": "Kd", "setting": "HLA-A*02:17; [10]", "result": 338, "unit": "nM"}]}, {"sequence": "VMASSVLLW", "values": [{"measurement": "Kd", "setting": "HLA-B*58:01 [1]; [11]", "result": 1.28, "unit": "nM"}, {"measurement": "Kd", "setting": "HLA-A*24:02", "result": 113, "unit": "nM"}, {"measurement": "Kd", "setting": "HLA-B*57:01; [11]", "result": 6.56, "unit": "nM"}]}, {"sequence": "KGKRIEPSW", "values": [{"measurement": "Kd", "setting": "HLA-B*58:01 [1]; [9]", "result": 11.2, "unit": "nM"}, {"measurement": "Kd", "setting": "HLA-B*57:01; [9]", "result": 13.1, "unit": "nM"}]}, {"sequence": "SASRAWNVWE", "values": [{"measurement": "Kd", "setting": "HLA-B*58:01 [1]; [12]", "result": 53.9, "unit": "nM"}, {"measurement": "Kd", "setting": "HLA-B*57:01; [12]", "result": 279, "unit": "nM"}]}, {"sequence": "GAVFTEENQW", "values": [{"measurement": "Kd", "setting": "HLA-B*58:01 [1]; [12]", "result": 22.6, "unit": "nM"}]}, {"sequence": "LMMRTTWAL", "values": [{"measurement": "Kd", "setting": "HLA-A*02:06; [9]", "result": 8.05, "unit": "nM"}, {"measurement": "Kd", "setting": "HLA-B*08:01 [3]", "result": 1.32, "unit": "nM"}, {"measurement": "Kd", "setting": "HLA-B*15:01 [4]", "result": 0.12, "unit": "nM"}, {"measurement": "Kd", "setting": "HLA-A*02:03; [9]", "result": 0.47, "unit": "nM"}, {"measurement": "Kd", "setting": "HLA-A*02:01 [2]; [9]", "result": 1.35, "unit": "nM"}, {"measurement": "Kd", "setting": "HLA-A*02:17; [9]", "result": 35.9, "unit": "nM"}]}, {"sequence": "KAAVEDEEF", "values": [{"measurement": "Kd", "setting": "HLA-B*58:01 [1]; [13]", "result": 61.9, "unit": "nM"}, {"measurement": "Kd", "setting": "HLA-B*57:01; [13]", "result": 1670, "unit": "nM"}]}, {"sequence": "LTSKELMMAT", "values": [{"measurement": "Kd", "setting": "HLA-B*58:01 [1]; [9]", "result": 1130, "unit": "nM"}, {"measurement": "Kd", "setting": "HLA-B*57:01; [9]", "result": "≥ 29800", "unit": "nM"}]}, {"sequence": "PSEDEQQGH", "values": [{"measurement": "Kd", "setting": "HLA-B*07:02", "result": "≥ 20000", "unit": "nM"}, {"measurement": "Kd", "setting": "HLA-B*44:02", "result": "≥ 20000", "unit": "nM"}, {"measurement": "Kd", "setting": "HLA-A*11:01", "result": "≥ 20000", "unit": "nM"}, {"measurement": "Kd", "setting": "HLA-B*27:05", "result": "≥ 20000", "unit": "nM"}, {"measurement": "Kd", "setting": "HLA-B*08:01 [5]", "result": "≥ 20000", "unit": "nM"}, {"measurement": "Kd", "setting": "HLA-B*15:01 [6]", "result": "≥ 20000", "unit": "nM"}, {"measurement": "Kd", "setting": "HLA-B*40:01", "result": "≥ 20000", "unit": "nM"}, {"measurement": "Kd", "setting": "HLA-A*26:01", "result": "≥ 20000", "unit": "nM"}, {"measurement": "Kd", "setting": "HLA-A*02:01 [7]", "result": "≥ 20000", "unit": "nM"}, {"measurement": "Kd", "setting": "HLA-A*24:03", "result": "≥ 20000", "unit": "nM"}, {"measurement": "Kd", "setting": "HLA-A*03:01", "result": "≥ 20000", "unit": "nM"}, {"measurement": "Kd", "setting": "HLA-B*58:01 [8]", "result": "≥ 20000", "unit": "nM"}, {"measurement": "Kd", "setting": "HLA-A*31:01", "result": "≥ 20000", "unit": "nM"}, {"measurement": "Kd", "setting": "HLA-A*01:01", "result": "≥ 20000", "unit": "nM"}, {"measurement": "Kd", "setting": "HLA-A*69:01", "result": "≥ 20000", "unit": "nM"}]}, {"sequence": "VLSIVSLFPL", "values": [{"measurement": "Kd", "setting": "HLA-A*02:01 [2]; [11]", "result": 8.47, "unit": "nM"}, {"measurement": "Kd", "setting": "HLA-A*02:17; [11]", "result": 8, "unit": "nM"}, {"measurement": "Kd", "setting": "HLA-B*57:01; source organism: Dengue virus 1 Brazil/97-11/1997", "result": 108, "unit": "nM"}]}]}
